Patent US20140120095A1 (Boehringer Ingelheim, published 2014)

T1: human DLL1 (human, UniProt O00548 18-545, limits assumed)
T1 construct: also called hDLL1
T1 sequence (looked up): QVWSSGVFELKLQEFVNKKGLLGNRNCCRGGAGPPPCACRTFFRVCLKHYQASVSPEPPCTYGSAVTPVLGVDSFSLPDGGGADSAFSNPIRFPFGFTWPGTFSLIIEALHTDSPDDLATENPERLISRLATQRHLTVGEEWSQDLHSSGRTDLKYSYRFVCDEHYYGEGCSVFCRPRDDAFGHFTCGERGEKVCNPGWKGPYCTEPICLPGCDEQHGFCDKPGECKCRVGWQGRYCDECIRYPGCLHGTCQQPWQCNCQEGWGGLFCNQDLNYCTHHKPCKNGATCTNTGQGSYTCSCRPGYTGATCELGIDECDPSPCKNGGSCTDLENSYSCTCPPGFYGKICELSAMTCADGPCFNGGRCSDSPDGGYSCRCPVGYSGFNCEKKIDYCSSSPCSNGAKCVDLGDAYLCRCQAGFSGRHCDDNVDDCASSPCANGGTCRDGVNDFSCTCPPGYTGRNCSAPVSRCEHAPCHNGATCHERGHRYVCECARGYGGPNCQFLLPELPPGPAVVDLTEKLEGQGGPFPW


Key:
[1] = target: T2, mouse DLL4 overexpressed on cells (mouse, UniProt Q9JI71 27-686); assay: FACS titration on HEK293-mDLL4 cells, MCF
T2 construct: whole, on cells; also called CHO-mDLL4; CHO-mDII4
T2 sequence (Q9JI71 27-686): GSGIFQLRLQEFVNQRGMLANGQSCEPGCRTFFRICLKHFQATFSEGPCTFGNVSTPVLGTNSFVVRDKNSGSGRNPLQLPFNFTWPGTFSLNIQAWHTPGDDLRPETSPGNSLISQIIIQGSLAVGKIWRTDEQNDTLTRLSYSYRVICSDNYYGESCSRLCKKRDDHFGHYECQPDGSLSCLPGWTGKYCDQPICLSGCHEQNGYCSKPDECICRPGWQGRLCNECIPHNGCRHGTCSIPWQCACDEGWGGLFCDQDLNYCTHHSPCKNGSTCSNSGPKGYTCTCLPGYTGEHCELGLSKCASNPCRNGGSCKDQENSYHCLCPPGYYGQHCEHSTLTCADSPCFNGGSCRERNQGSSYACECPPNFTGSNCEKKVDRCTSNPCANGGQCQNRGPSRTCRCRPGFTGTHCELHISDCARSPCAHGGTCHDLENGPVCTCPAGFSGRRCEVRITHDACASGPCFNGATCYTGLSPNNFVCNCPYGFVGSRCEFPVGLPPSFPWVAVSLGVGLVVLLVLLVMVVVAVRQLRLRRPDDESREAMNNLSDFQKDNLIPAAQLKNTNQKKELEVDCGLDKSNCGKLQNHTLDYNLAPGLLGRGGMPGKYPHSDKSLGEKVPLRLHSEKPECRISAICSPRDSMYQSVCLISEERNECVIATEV
Protocol: (§1) In order to determine the cynomologus cross-reactivity of the VHHs, a FACS binding experiment is performed. Cynomolgus DII4 expressing HEK293 cells (transient or stable transfection) are used for a titration binding experiment of the VHHs. After a 30 minutes incubation on ice, all samples are washed and detection is performed by applying anti-c-myc˜Alexa647 (Santa Cruz Biotechnology, Santa Cruz, Calif., USA). Human and mouse DII4 overexpressing HEK293 cells are taken as reference. The mean MCF value is determined on the FACS Array and used for calculation of the EC₅₀ value (see FIG. 9 A-E).

[2] = target: T2, mouse DLL4 overexpressed on cells; assay: FMAT, labelled hNotch1-Fc on CHO-mDLL4, periplasmic extract
Description: (§2) All calculations are based on the FL1_total signal which comprises the average of the fluorescence per well times the number of counts per well.

[3] = target: T3, human DLL4 overexpressed on cells (human, UniProt Q9NR61 27-685); assay: FMAT, labelled hNotch1-Fc on CHO-hDLL4, periplasmic extract
T3 construct: full length human DLL4 on CHO or HEK293 cells; also called CHO-hDLL4; CHO-hDII4
Description: as §2

[4] = target: T4, recombinant mouse DLL4 (mouse, UniProt Q9JI71 27-532); assay: Biacore, VHH on chip, 200 nM DLL4 sample injected
T4 construct: extracellular domain; also called rmDLL4; mDLL4
T4 sequence (Q9JI71 27-532): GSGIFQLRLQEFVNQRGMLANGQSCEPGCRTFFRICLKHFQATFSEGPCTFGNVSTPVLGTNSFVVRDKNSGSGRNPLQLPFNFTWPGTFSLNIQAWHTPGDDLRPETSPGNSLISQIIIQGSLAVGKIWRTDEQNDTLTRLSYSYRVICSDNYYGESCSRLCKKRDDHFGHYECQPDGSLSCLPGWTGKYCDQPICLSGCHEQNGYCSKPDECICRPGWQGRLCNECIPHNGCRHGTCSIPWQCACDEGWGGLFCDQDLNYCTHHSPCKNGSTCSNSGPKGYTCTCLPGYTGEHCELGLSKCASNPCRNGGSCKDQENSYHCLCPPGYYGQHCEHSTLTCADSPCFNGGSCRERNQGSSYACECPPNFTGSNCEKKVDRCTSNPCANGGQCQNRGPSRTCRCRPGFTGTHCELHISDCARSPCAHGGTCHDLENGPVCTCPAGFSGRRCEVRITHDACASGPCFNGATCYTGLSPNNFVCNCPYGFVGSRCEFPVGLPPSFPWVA

[5] = target: hDLL4.3 (human); assay: Biacore, VHH on chip, 200 nM DLL4 sample injected
[6] = target: mDLL4.10 (mouse); assay: Biacore, VHH on chip, 200 nM DLL4 sample injected
[7] = target: mDLL4.11 (mouse); assay: Biacore, VHH on chip, 200 nM DLL4 sample injected
[8] = target: T5, recombinant human DLL4 (human, UniProt Q9NR61 25-522); assay: Biacore, VHH on chip, 200 nM DLL4 sample injected
T5 construct: also called rhDLL4; hDLL4

[9] = target: hDLL4.5 (human); assay: Biacore, VHH on chip, 200 nM DLL4 sample injected
[10] = target: mDLL4.12 (mouse); assay: Biacore, VHH on chip, 200 nM DLL4 sample injected
[11] = target: hDLL4.6 (human); assay: Biacore, VHH on chip, 200 nM DLL4 sample injected
[12] = target: T1, human DLL1; assay: binding ELISA on coated recombinant human DLL1, OD 405 nm
Summary of the method: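 Plates coated overnight at 4° C with 1 μg/mL ligand, blocked with 1% casein in PBS. VHH dilution series applied; bound VHH detected via mouse anti-myc then anti-mouse-AP conjugate.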

[13] = target: T3, human DLL4 overexpressed on cells; assay: FACS titration on HEK293-hDLL4 cells, MCF
Protocol: as §1

[14] = target: recombinant human DLL4 (C-terminally His-tagged extracellular domain, R&D Systems) (human, UniProt Q9NR61 25-522, biotinylated in the competition ELISA); assay: cell-based or functional assay
[15] = target: T6, human DLL4 expressed on cells (CHO-hDLL4; HEK293-hDLL4) (human, UniProt Q9NR61 27-685); assay: cell-based or functional assay
[16] = target: T6, human DLL4 expressed on cells …; assay: competition FMAT, labelled hNotch1-Fc on CHO-hDLL4 cells
[17] = target: T5, recombinant human DLL4; assay: competition AlphaScreen, biot-hDLL4/hNotch1-Fc
Protocol: In brief, 1 nM biotinylated human DII4 is captured on streptavidin-coated donor beads (20 μg/mL), while 0.4 nM of the receptor human Notch1 (as a Fc fusion protein) is captured on anti-human Fc VHH-coated acceptor beads (20 μg/mL). Both loaded beads are incubated together with a dilution range of the competing VHH (FIG. 4 A-E).

Row | EC50 (read off the curve) [1] [nM] | % inh [2] [%] | % inh [3] [%] | Binding (RU) [4] [RU] | koff [4] [s⁻¹] | Binding (RU) [5] [RU] | koff [5] [s⁻¹] | Binding (RU) [6] [RU] | koff [6] [s⁻¹] | Binding (RU) [7] [RU] | koff [7] [s⁻¹] | Binding (RU) [8] [RU] | koff [8] [s⁻¹] | Binding (RU) [9] [RU] | koff [9] [s⁻¹] | Binding (RU) [10] [RU] | koff [10] [s⁻¹] | Binding (RU) [11] [RU] | koff [11] [s⁻¹] | EC50 (read off the curve) [13] [nM] | Binder | also measured
1 | ~40 | 92 | 91 | 502 | 0.006 | 198 | 0.00465 | 189 | 0.00514 | 210 | 0.00616 | 373 | 0.002 | 266 | 0.00219 | 244 | 0.00452 | 229 | 0.0022 | ~30 | DLLBII101G08 (VHH, also called 101G8; DLLBII101G8) VHH: EVQLVESGGGLVQAGGSLRLSCAASGRTFSSYAMAWFRQAPGKEREFVAAIRWSGGTAYYADSVQGRFTISRDNAKNTVYLQMNSLKPEDTAVYYCANRAADTRLGPYEYDYWGQGTQVTVSS | binding result [12]: no binding (tested: 5e-7 M)
2 |  |  |  |  |  |  |  |  |  |  |  |  |  |  |  |  |  |  |  |  | DLLBII129B05 (VHH, not shown: small tags and cut ends) VHH: EVQLVESGGGLVQAGGSLRLSCAASGRTFSSYAMAWYRQAPGKEREYVAAIRWSGGTAYYADSVQGRFTISRDNAKNTVYLQMNSLKPEDTAVYYCANRAPDTRLAPYEYDHWGQGTQVTVSS | IC50, DLL4-mediated HUVEC proliferation assay [14]: 3.7 nM; Inhibition (%), DLL4-mediated HUVEC proliferation assay [14]: 100%; IC50, DLL4-mediated reporter assay (hDLL4) [15]: 108 nM; IC50 [16]: 8.2 nM
3 |  |  |  | 389 | 0.0019 | 125 | 0.00074 | 141 | 0.0011 | 132 | 0.0016 | 281 | 0.00095 | 143 | 0.0012 | 161 | 0.0013 | 136 | 0.0011 | ~4 | DLLBII56A09 (VHH, also called 56A9; DLLBII56A9) VHH: EVQLVESGGGLVQPGGSLRLSCAASGFTFDDYAIGWFRQAPGKEPEGISCISSSGGITYYADSVKGRFTTSRDNAKNTVYLQMNSLKPEDTAVYYCATPGIAACRGIHYTGQGTQVTVSS | IC50 [17]: 1.2 nM
4 | ~30 | 84 | 74 | 344 | 0.0065 | 137 | 0.0035 | 121 | 0.0038 | 121 | 0.0066 | 324 | 0.0035 | 162 | 0.0042 | 152 | 0.0031 | 152 | 0.0041 | ~20 | DLLBII115A05 (VHH, also called 115A5; DLLBII115A5) VHH: EVQLVESGGGLVQPGGSLRLSCAASGFTFGSYDMSWVRRSPGKGPEWVSSINSGGGSTYYADFVKGRFTISRDNAKNTLYLQMNSLKPEDTAVYYCAADRYIRARQGDYWGAYEYDYWGQGTQVTVSS | binding result [12]: no binding (tested: 5e-7 M); IC50 [17]: 5 nM
5 |  |  |  |  |  |  |  |  |  |  |  |  |  |  |  |  |  |  |  |  | DLLBII136C07 (VHH, not shown: small tags and cut ends) VHH: EVQLVESGGGLVQPGGSLRLSCAASGFTFGSYDMSWVRRSPGKGPEWVSSINSGGGSTYYADYVKGRFTISRDNAKNTLYLQMNSLKPEDTAVYYCAADRYIWARQGEYWGAYEYDYWGQGTQVTVSS | IC50, DLL4-mediated HUVEC proliferation assay [14]: 14.5 nM; Inhibition (%), DLL4-mediated HUVEC proliferation assay [14]: 100%; IC50, DLL4-mediated reporter assay (hDLL4) [15]: 112 nM; IC50 [16]: 11.4 nM
